The values that follow come from patent US12679878B2, “CRF2 receptor agonists and their use in therapy” (SANOFI, priority 2020, dated 2026).

Starred links: 1 amine or outer side, 2 acyl side, 3 side chain; linkers in the order of their positions; H or OH if unused. Non-standard residues stand in square brackets, D forms with d. Groups on a side chain read outwards from the residue. No end group written: not given here. *: point of attachment. C18 diacid = O=C(O)CCCCCCCCCCCCCCCCC(=O)*; γGlu = O=C(O)[C@H](CCC(=O)[*:2])N[*:1]; Palmitoyl = CCCCCCCCCCCCCCCC(=O)*; AEEA = NCCOCCOCC(=O)O; Aib = CC(C)(N)C(=O)O

The test concerns the target human corticotropin-releasing factor 2α (CRF2 α receptor) (human), Q13324. The test can be described thus: cell-based or functional assay.

Chain of human corticotropin-releasing factor 2α (CRF2 α receptor) (human), Q13324 (Q13324 20-411): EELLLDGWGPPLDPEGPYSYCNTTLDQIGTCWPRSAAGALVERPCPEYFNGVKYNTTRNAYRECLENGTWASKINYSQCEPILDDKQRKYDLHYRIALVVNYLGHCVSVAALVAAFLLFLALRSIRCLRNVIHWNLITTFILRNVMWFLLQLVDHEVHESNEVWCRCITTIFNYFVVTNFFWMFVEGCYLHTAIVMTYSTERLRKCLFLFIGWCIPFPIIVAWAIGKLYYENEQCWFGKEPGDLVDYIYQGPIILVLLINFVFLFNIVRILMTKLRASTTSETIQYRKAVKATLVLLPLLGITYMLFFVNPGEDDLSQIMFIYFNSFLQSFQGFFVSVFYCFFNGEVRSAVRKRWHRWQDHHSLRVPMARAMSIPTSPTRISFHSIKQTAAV

B1: SEQ ID NO: 87 (peptide)
peptide: IVLSLDVPIKLK([AEEA-AEEA-γGlu-C18 diacid])QILLKQERQKKQREKAKTNKQILAQV-NH2
modifications: N-terminus assumed
SMILES: CC[C@H](C)[C@H](N)C(=O)N[C@H](C(=O)N[C@@H](CC(C)C)C(=O)N[C@@H](CO)C(=O)N[C@@H](CC(C)C)C(=O)N[C@@H](CC(=O)O)C(=O)N[C@H](C(=O)N1CCC[C@H]1C(=O)N[C@H](C(=O)N[C@@H](CCCCN)C(=O)N[C@@H](CC(C)C)C(=O)N[C@@H](CCCCNC(=O)COCCOCCNC(=O)COCCOCCNC(=O)CC[C@H](NC(=O)CCCCCCCCCCCCCCCCC(=O)O)C(=O)O)C(=O)N[C@@H](CCC(N)=O)C(=O)N[C@H](C(=O)N[C@@H](CC(C)C)C(=O)N[C@@H](CC(C)C)C(=O)N[C@@H](CCCCN)C(=O)N[C@@H](CCC(N)=O)C(=O)N[C@@H](CCC(=O)O)C(=O)N[C@@H](CCCNC(=N)N)C(=O)N[C@@H](CCC(N)=O)C(=O)N[C@@H](CCCCN)C(=O)N[C@@H](CCCCN)C(=O)N[C@@H](CCC(N)=O)C(=O)N[C@@H](CCCNC(=N)N)C(=O)N[C@@H](CCC(=O)O)C(=O)N[C@@H](CCCCN)C(=O)N[C@@H](C)C(=O)N[C@@H](CCCCN)C(=O)N[C@H](C(=O)N[C@@H](CC(N)=O)C(=O)N[C@@H](CCCCN)C(=O)N[C@@H](CCC(N)=O)C(=O)N[C@H](C(=O)N[C@@H](CC(C)C)C(=O)N[C@@H](C)C(=O)N[C@@H](CCC(N)=O)C(=O)N[C@H](C(N)=O)C(C)C)[C@@H](C)CC)[C@@H](C)O)[C@@H](C)CC)[C@@H](C)CC)C(C)C)C(C)C
As to B1, the EC50 [nM], 0% HSA worked out at 0.23 nM and the EC50 [nM], 0.1% HSA was determined as 16.2 nM.

B2: SEQ ID NO: 88 (peptide)
peptide: IVLSLDVPIKLK([AEEA-AEEA-γGlu-C18 diacid])QILLKQERQKKQREKAKTN[Aib]QILAQV-NH2
modifications: N-terminus assumed
SMILES: CC[C@H](C)[C@H](N)C(=O)N[C@H](C(=O)N[C@@H](CC(C)C)C(=O)N[C@@H](CO)C(=O)N[C@@H](CC(C)C)C(=O)N[C@@H](CC(=O)O)C(=O)N[C@H](C(=O)N1CCC[C@H]1C(=O)N[C@H](C(=O)N[C@@H](CCCCN)C(=O)N[C@@H](CC(C)C)C(=O)N[C@@H](CCCCNC(=O)COCCOCCNC(=O)COCCOCCNC(=O)CC[C@H](NC(=O)CCCCCCCCCCCCCCCCC(=O)O)C(=O)O)C(=O)N[C@@H](CCC(N)=O)C(=O)N[C@H](C(=O)N[C@@H](CC(C)C)C(=O)N[C@@H](CC(C)C)C(=O)N[C@@H](CCCCN)C(=O)N[C@@H](CCC(N)=O)C(=O)N[C@@H](CCC(=O)O)C(=O)N[C@@H](CCCNC(=N)N)C(=O)N[C@@H](CCC(N)=O)C(=O)N[C@@H](CCCCN)C(=O)N[C@@H](CCCCN)C(=O)N[C@@H](CCC(N)=O)C(=O)N[C@@H](CCCNC(=N)N)C(=O)N[C@@H](CCC(=O)O)C(=O)N[C@@H](CCCCN)C(=O)N[C@@H](C)C(=O)N[C@@H](CCCCN)C(=O)N[C@H](C(=O)N[C@@H](CC(N)=O)C(=O)NC(C)(C)C(=O)N[C@@H](CCC(N)=O)C(=O)N[C@H](C(=O)N[C@@H](CC(C)C)C(=O)N[C@@H](C)C(=O)N[C@@H](CCC(N)=O)C(=O)N[C@H](C(N)=O)C(C)C)[C@@H](C)CC)[C@@H](C)O)[C@@H](C)CC)[C@@H](C)CC)C(C)C)C(C)C
In the case of B2, the EC50 [nM], 0% HSA came to 0.68 nM and the EC50 [nM], 0.1% HSA was 25.7 nM.

B3: SEQ ID NO: 89 (peptide)
peptide: IVLSLDVPIKLK([AEEA-AEEA-γGlu-C18 diacid])QILLKQERQKKQREQAKTN[Aib]QILAQV-NH2
modifications: N-terminus assumed
SMILES: CC[C@H](C)[C@H](N)C(=O)N[C@H](C(=O)N[C@@H](CC(C)C)C(=O)N[C@@H](CO)C(=O)N[C@@H](CC(C)C)C(=O)N[C@@H](CC(=O)O)C(=O)N[C@H](C(=O)N1CCC[C@H]1C(=O)N[C@H](C(=O)N[C@@H](CCCCN)C(=O)N[C@@H](CC(C)C)C(=O)N[C@@H](CCCCNC(=O)COCCOCCNC(=O)COCCOCCNC(=O)CC[C@H](NC(=O)CCCCCCCCCCCCCCCCC(=O)O)C(=O)O)C(=O)N[C@@H](CCC(N)=O)C(=O)N[C@H](C(=O)N[C@@H](CC(C)C)C(=O)N[C@@H](CC(C)C)C(=O)N[C@@H](CCCCN)C(=O)N[C@@H](CCC(N)=O)C(=O)N[C@@H](CCC(=O)O)C(=O)N[C@@H](CCCNC(=N)N)C(=O)N[C@@H](CCC(N)=O)C(=O)N[C@@H](CCCCN)C(=O)N[C@@H](CCCCN)C(=O)N[C@@H](CCC(N)=O)C(=O)N[C@@H](CCCNC(=N)N)C(=O)N[C@@H](CCC(=O)O)C(=O)N[C@@H](CCC(N)=O)C(=O)N[C@@H](C)C(=O)N[C@@H](CCCCN)C(=O)N[C@H](C(=O)N[C@@H](CC(N)=O)C(=O)NC(C)(C)C(=O)N[C@@H](CCC(N)=O)C(=O)N[C@H](C(=O)N[C@@H](CC(C)C)C(=O)N[C@@H](C)C(=O)N[C@@H](CCC(N)=O)C(=O)N[C@H](C(N)=O)C(C)C)[C@@H](C)CC)[C@@H](C)O)[C@@H](C)CC)[C@@H](C)CC)C(C)C)C(C)C
The molecule B3 showed an EC50 [nM], 0% HSA of 0.3 nM and an EC50 [nM], 0.1% HSA of 15.6 nM.

B4: SEQ ID NO: 6 (peptide)
peptide: IVLSLDVPIGLK([γGlu-Palmitoyl])QKLLKQQRQRKERQQAEKNARILARV-NH2
modifications: N-terminus assumed
SMILES: CCCCCCCCCCCCCCCC(=O)N[C@@H](CCC(=O)NCCCC[C@H](NC(=O)[C@H](CC(C)C)NC(=O)CNC(=O)[C@@H](NC(=O)[C@@H]1CCCN1C(=O)[C@@H](NC(=O)[C@H](CC(=O)O)NC(=O)[C@H](CC(C)C)NC(=O)[C@H](CO)NC(=O)[C@H](CC(C)C)NC(=O)[C@@H](NC(=O)[C@@H](N)[C@@H](C)CC)C(C)C)C(C)C)[C@@H](C)CC)C(=O)N[C@@H](CCC(N)=O)C(=O)N[C@@H](CCCCN)C(=O)N[C@@H](CC(C)C)C(=O)N[C@@H](CC(C)C)C(=O)N[C@@H](CCCCN)C(=O)N[C@@H](CCC(N)=O)C(=O)N[C@@H](CCC(N)=O)C(=O)N[C@@H](CCCNC(=N)N)C(=O)N[C@@H](CCC(N)=O)C(=O)N[C@@H](CCCNC(=N)N)C(=O)N[C@@H](CCCCN)C(=O)N[C@@H](CCC(=O)O)C(=O)N[C@@H](CCCNC(=N)N)C(=O)N[C@@H](CCC(N)=O)C(=O)N[C@@H](CCC(N)=O)C(=O)N[C@@H](C)C(=O)N[C@@H](CCC(=O)O)C(=O)N[C@@H](CCCCN)C(=O)N[C@@H](CC(N)=O)C(=O)N[C@@H](C)C(=O)N[C@@H](CCCNC(=N)N)C(=O)N[C@H](C(=O)N[C@@H](CC(C)C)C(=O)N[C@@H](C)C(=O)N[C@@H](CCCNC(=N)N)C(=O)N[C@H](C(N)=O)C(C)C)[C@@H](C)CC)C(=O)O
B4 had an EC50 [nM], 0% HSA of 0.16 nM and an EC50 [nM], 0.1% HSA of 0.18 nM.

B5: SEQ ID NO: 86 (peptide)
peptide: IVLSLDVPIKLK([AEEA-AEEA-γGlu-C18 diacid])QILLKQERQKKQREQAKTNKQILAQV-NH2
modifications: N-terminus assumed
SMILES: CC[C@H](C)[C@H](N)C(=O)N[C@H](C(=O)N[C@@H](CC(C)C)C(=O)N[C@@H](CO)C(=O)N[C@@H](CC(C)C)C(=O)N[C@@H](CC(=O)O)C(=O)N[C@H](C(=O)N1CCC[C@H]1C(=O)N[C@H](C(=O)N[C@@H](CCCCN)C(=O)N[C@@H](CC(C)C)C(=O)N[C@@H](CCCCNC(=O)COCCOCCNC(=O)COCCOCCNC(=O)CC[C@H](NC(=O)CCCCCCCCCCCCCCCCC(=O)O)C(=O)O)C(=O)N[C@@H](CCC(N)=O)C(=O)N[C@H](C(=O)N[C@@H](CC(C)C)C(=O)N[C@@H](CC(C)C)C(=O)N[C@@H](CCCCN)C(=O)N[C@@H](CCC(N)=O)C(=O)N[C@@H](CCC(=O)O)C(=O)N[C@@H](CCCNC(=N)N)C(=O)N[C@@H](CCC(N)=O)C(=O)N[C@@H](CCCCN)C(=O)N[C@@H](CCCCN)C(=O)N[C@@H](CCC(N)=O)C(=O)N[C@@H](CCCNC(=N)N)C(=O)N[C@@H](CCC(=O)O)C(=O)N[C@@H](CCC(N)=O)C(=O)N[C@@H](C)C(=O)N[C@@H](CCCCN)C(=O)N[C@H](C(=O)N[C@@H](CC(N)=O)C(=O)N[C@@H](CCCCN)C(=O)N[C@@H](CCC(N)=O)C(=O)N[C@H](C(=O)N[C@@H](CC(C)C)C(=O)N[C@@H](C)C(=O)N[C@@H](CCC(N)=O)C(=O)N[C@H](C(N)=O)C(C)C)[C@@H](C)CC)[C@@H](C)O)[C@@H](C)CC)[C@@H](C)CC)C(C)C)C(C)C
Molecule B5 had an EC50 [nM], 0% HSA of 0.11 nM and an EC50 [nM], 0.1% HSA of 5.7 nM.

B6: SEQ ID NO: 85 (peptide)
peptide: IVLSLDVPIKLK([AEEA-AEEA-γGlu-C18 diacid])QILLKQERQKKQREQAETNKQILAQV-NH2
modifications: N-terminus assumed
SMILES: CC[C@H](C)[C@H](N)C(=O)N[C@H](C(=O)N[C@@H](CC(C)C)C(=O)N[C@@H](CO)C(=O)N[C@@H](CC(C)C)C(=O)N[C@@H](CC(=O)O)C(=O)N[C@H](C(=O)N1CCC[C@H]1C(=O)N[C@H](C(=O)N[C@@H](CCCCN)C(=O)N[C@@H](CC(C)C)C(=O)N[C@@H](CCCCNC(=O)COCCOCCNC(=O)COCCOCCNC(=O)CC[C@H](NC(=O)CCCCCCCCCCCCCCCCC(=O)O)C(=O)O)C(=O)N[C@@H](CCC(N)=O)C(=O)N[C@H](C(=O)N[C@@H](CC(C)C)C(=O)N[C@@H](CC(C)C)C(=O)N[C@@H](CCCCN)C(=O)N[C@@H](CCC(N)=O)C(=O)N[C@@H](CCC(=O)O)C(=O)N[C@@H](CCCNC(=N)N)C(=O)N[C@@H](CCC(N)=O)C(=O)N[C@@H](CCCCN)C(=O)N[C@@H](CCCCN)C(=O)N[C@@H](CCC(N)=O)C(=O)N[C@@H](CCCNC(=N)N)C(=O)N[C@@H](CCC(=O)O)C(=O)N[C@@H](CCC(N)=O)C(=O)N[C@@H](C)C(=O)N[C@@H](CCC(=O)O)C(=O)N[C@H](C(=O)N[C@@H](CC(N)=O)C(=O)N[C@@H](CCCCN)C(=O)N[C@@H](CCC(N)=O)C(=O)N[C@H](C(=O)N[C@@H](CC(C)C)C(=O)N[C@@H](C)C(=O)N[C@@H](CCC(N)=O)C(=O)N[C@H](C(N)=O)C(C)C)[C@@H](C)CC)[C@@H](C)O)[C@@H](C)CC)[C@@H](C)CC)C(C)C)C(C)C
In turn, B6 gave an EC50 [nM], 0% HSA of 0.1 nM and an EC50 [nM], 0.1% HSA of 3.58 nM.
